Columns and labels:
[1] = target: T1, rTcGAPDH (glyceraldehyde 3-phosphate dehydrogenase) (Trypanosoma cruzi, UniProt P22513 1-359); test: EMSA; 50 uM GAPDH; 1x from 5x buffer: 20 mM HEPES pH 6.0, 1 mM EDTA, 10 mM (NH4)2SO4, 1 mM DTT, 0.2% Tween 20, 30 mM KCl; 0.1 ug poly-lysine, 1 ug poly[d(I-C)], 20 ul, on ice 15 min; 6% native gel, 0.25x TBE; settings: protein: recombinant; tags: His-tag; chain copies: 4; label: DIG-11-ddUTP at 3' end; single strand
[2] = target: T1, rTcGAPDH (glyceraldehyde 3-phosphate …); test: EMSA; supershift with anti-GAPDH serum; 1x from 5x buffer: 20 mM HEPES pH 6.0, 1 mM EDTA, 10 mM (NH4)2SO4, 1 mM DTT, 0.2% Tween 20, 30 mM KCl; 0.1 ug poly-lysine, 1 ug poly[d(I-C)], 20 ul, on ice 15 min; 6% native gel, 0.25x TBE; settings: protein: recombinant; tags: His-tag; chain copies: 4; label: DIG-11-ddUTP at 3' end (terminal transferase); single strand

T1 sequence (P22513 whole entry): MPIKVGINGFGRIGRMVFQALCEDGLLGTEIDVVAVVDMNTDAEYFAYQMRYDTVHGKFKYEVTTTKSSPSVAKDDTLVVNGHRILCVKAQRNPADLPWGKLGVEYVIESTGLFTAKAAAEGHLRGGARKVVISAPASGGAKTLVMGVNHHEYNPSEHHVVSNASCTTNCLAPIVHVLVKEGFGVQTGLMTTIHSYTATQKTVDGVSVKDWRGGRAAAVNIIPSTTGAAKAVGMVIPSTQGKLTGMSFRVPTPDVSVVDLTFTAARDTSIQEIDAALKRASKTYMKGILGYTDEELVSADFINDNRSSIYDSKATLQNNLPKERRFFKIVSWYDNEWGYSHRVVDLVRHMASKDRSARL

| Binder | binding result [1] | binding result [2] |
| --- | --- | --- |
| TTAGGGTTAGGGTTAGGG (ssDNA) [ss (TTAGGG)3] | binds | – |
| TTAGGGTTAGGGTTAGGGTTAGGGTTAGGGTTAGGG (ssDNA) [ss (TTAGGG)6] | – | binds |
| TTAGGG (ssDNA) [ss (TTAGGG)1] | binds | – |

From PMC4361584, “Glyceraldehyde 3-Phosphate Dehydrogenase-Telomere Association Correlates with Redox Status in Trypanosoma cruzi”
